According to patent US10464976B2, “Amyloid β(1-42) oligomers, derivatives thereof and antibodies thereto, methods of preparation thereof and use thereof” (AbbVie Deutschland GmbH & Co. KG, priority 2003, dated 2019):
Read-outs that look alike come from different tables or passages of the source. Where no end group is shown, it is not given here.

Assays:
[1] = system: rat primary hippocampal neurons; experiment: Binding to rat primary hippocampal neurons (immunofluorescence); format: cell-based; conditions: 200 nM, 37° C., 15 minutes, detection with 6E10 and Cy3 second antibody
Experimental: The binding of rat Aβ(1-42) oligomers B of example 5b to rat primary hippocampal neurons was studied. The hippocampal neurons were cultured in neurobasal medium with B27 supplement on poly-L-lysine-coated cover slips and used on day 14 of the culture. The oligomers were bound to the cell membrane of the neurons by adding 200 nM (total monomeric Aβ concentration) oligomers to fresh culture medium and incubating at 37° C. for 15 minutes. After removing the Aβ-containing medium, two washing steps with medium were carried out and the cells were then fixed in 3.7% formaldehyde. After further washing of the cells, unspecific binding sites were blocked with 10% normal donkey serum in PBS buffer at room temperature for 90 min. 6E10 (from mouse) was applied as the first antibody in a 1:2000 dilution at room temperature for 2 h. The cells were washed again and incubated with the second antibody (from donkey) which is directed against mouse and which is coupled to the fluorescent dye Cy3, at room temperature for 2 h. After the cells had been washed again, the cover slips containing the neurons were fixed to a slide with embedding medium. The hippocampal neurons with bound Aβ oligomers were depicted in a fluorescent microscope. The control used was a mixture in which the first antibody 6E10 had been omitted.

murine cortical neurons = experiment: Neurotoxic action on murine cortical neurons (LDH release); format: cell-based; conditions: 24 h, various final concentrations, n=12
Experimental: Murine cortical neurons are prepared and cultured as a mixed culture with glia cells following the literature (Choi et al. (1987) J. Neurosci. 7, 357-368). The cortices of embryos on days 14-15 of development are mechanically removed from the meninges and lower brain regions. The cells are separated from one another by incubation in a 0.05% strength trypsin solution at 37° C. for 5-7 minutes and subsequently pipetting said solution several times through a pasteur pipette with reduced opening. After determining the number of cells, 430 000 cells are seeded in 0.5 ml of maintenance medium (minimum essential medium containing 0.8 mM glutamine, 18 mM glucose, 23 mM NaHCO3 and 10% of horse serum) per 2 cm^2 on cell culture material coated with poly-L-ornithine and laminine. Cultivation and later incubations of the cells are carried out in a humidified cell culture incubator at 37° C., 5% CO2. […] The cell culture supernatants are removed after 24 h, the remaining cells are destroyed by incubation in distilled water for 20 minutes and the activity of the enzyme lactate dehydrogenase (LDH) is determined enzymatically in both solutions. For evaluation, the ratio of the LDH activity of the cell culture supernatants to the sum of the LDH activities of supernatant and remaining cells is determined and the average of the quadruple determinations is formed. […]

[2] = rat
[3] = rat, in vivo; for Aβ(1-42) detected in brain extract: 10 nmol
[4] = Stability of Aβ(1-42) oligomers B in physiological buffers (SDS PAGE); format: physicochemical
Experimental: The Aβ(1-42) oligomers B obtained according to example 6b are tested for stability in PBS buffer under the following conditions.
5 mg/ml are diluted with PBS in 2× dilution steps down to 0.08 mg/ml. All solutions obtained are incubated at room temperature for 24 hours. This was followed by analyzing the band pattern in an SDS PAGE in comparison with a frozen control preparation.
The Aβ(1-42) oligomers B obtained according to example 6b are diluted to 0.5 mg/ml with PBS buffer and incubated at room temperature or at 37° C. for 24 h or 96 h.
Subsequently, the band pattern was analyzed in an SDS PAGE.

[5] = Detection of Aβ(1-42) oligomers B in rat brain homogenates after icv administration; conditions: Western blot, after 2 hours

Substance	binding to the cell surface of the neurons [1]	neurotoxicity (neuronal death, LDH) (murine cortical neurons)	biological half life in the plasma [2] [hours]	average biological half life (brain) [3]	Aβ(1-42) detected in brain extract ([3]; 0.25 h)	Aβ(1-42) detected in brain extract ([3]; 2 h)	band pattern in SDS PAGE ([4]; 0.5 mg/ml in PBS, room temperature or 37° C., 24 h or 96 h)	band pattern in SDS PAGE versus frozen control ([4]; PBS, 5 mg/ml down to 0.08 mg/ml, room temperature, 24 hours)	oligomeric structure after in vivo administration (38/48 kDa bands) [5]
rat Aβ(1-42) oligomers B: oligomers of rat amyloid β(1-42) protein with molecular weights of 38 kDa and 48 kDa (example 5b) (DAEFGHDSGFEVRHQKLVFFAEDVGSNKGAIIGLMVGGVVIA; also: oligomers of 38 kDa and 48 kDa)	bind to the cell surface of the neurons in a dotted manner								
Aβ(1-42) oligomers B: oligomers of human amyloid β(1-42) protein with molecular weights of 38 kDa and 48 kDa in SDS PAGE (examples 5a, 6b)		distinct toxic action	≥ 8	about 105 min	about 0.4 nmol/g	approx. 0.2 nmol/g	identical in all samples	identical in all samples	oligomeric structure is still retained
